Source: US20150240222A1

Tests used:
FITC-casein [1] = assay: cell-based or functional assay
FITC-casein [2] = assay: fluorescence polarization, 6 nM FITC-casein with 0-5 uM Hsp104, 2 mM ATPgS, 25 C

Km of FITC-casein degradation (translocation into ClpP), initial rates against FITC-casein concentration (FITC-casein [1])	Kd (FITC-casein [2])	Substance
1.29 µM		HAPA503V (from UniProt P31539 1-908)
2.88 µM		HAPWT (from UniProt P31539 1-908)
	80 nM	Hsp104A503V (from UniProt P31539 1-908)
	65 nM	Hsp104WT (from UniProt P31539 1-908)
